PMC3197488

Key:
[1] = target: T1, Pae chi-psi complex (DNA polymerase III) (Pseudomonas aeruginosa PAO1) (UniProt O68823); test: analytical ultracentrifugation (sedimentation velocity); details: Low salt: 5 mM NaCl, 5 mM KPi pH 7.4, 0.87 M glycerol, 0.5 mM DTT; high salt: 0.3 M NaCl, 20 mM KPi pH 7.4, 0.5 mM DTT; AUC at 20 C; EMSA incubated 10 min at …
T1 sequence: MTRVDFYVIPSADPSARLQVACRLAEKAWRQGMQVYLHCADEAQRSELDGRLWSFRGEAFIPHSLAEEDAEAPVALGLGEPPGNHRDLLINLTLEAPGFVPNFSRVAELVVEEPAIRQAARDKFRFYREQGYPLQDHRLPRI

[2] = target: PaeSSB;Pae chi-psi complex (DNA polymerase III) (Pseudomonas aeruginosa;Pseudomonas aeruginosa PAO1) (UniProt P40947+O68823); test: as above; details: Low salt: 5 mM NaCl, 5 mM KPi pH 7.4, 0.87 M glycerol, 0.5 mM DTT; high salt: 0.3 M NaCl, 20 mM KPi pH 7.4, 0.5 mM DTT; AUC at 20 C; EMSA incubated 10 min at …
[3] = target: EcoSSB;Eco chi-psi complex (Escherichia coli;Escherichia coli LK111lambda) (UniProt P0AGE0+P28905+P28632); test: as above; details: Low salt: 5 mM NaCl, 5 mM KPi pH 7.4, 0.87 M glycerol, 0.5 mM DTT; high salt: 0.3 M NaCl, 20 mM KPi pH 7.4, 0.5 mM DTT; AUC at 20 C; EMSA incubated 10 min at …
[4] = target: P. aeruginosa single-stranded DNA-binding protein (P. aeruginosa) (UniProt P40947); test: AUC; sedimentation velocity; χψ titrated to 0.35 μM cognate SSB saturated with 12.3 μM poly(dT), low salt buffer, 22000 rpm, 20°C, 230 nm; model of n χψ per SSB tetramer
[5] = target: P. aeruginosa single-stranded DNA-binding protein (P. aeruginosa) (UniProt P40947); test: AUC; sedimentation velocity; χψ titrated to 6 μM SSB in high salt buffer, 50000 rpm, 20°C, 280 nm; free χψ from c(s); model of n independent χψ per SSB tetramer

Chain of P. aeruginosa single-stranded DNA-binding protein (P. aeruginosa) (P40947 whole entry): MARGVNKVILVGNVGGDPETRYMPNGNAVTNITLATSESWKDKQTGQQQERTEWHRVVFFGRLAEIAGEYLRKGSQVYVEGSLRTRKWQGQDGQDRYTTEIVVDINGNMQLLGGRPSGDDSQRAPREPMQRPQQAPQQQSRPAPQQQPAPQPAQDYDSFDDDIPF
Chain of PaeSSB;Pae chi-psi complex (DNA polymerase III) (Pseudomonas aeruginosa;Pseudomonas aeruginosa PAO1) (P40947 2-165, one chain of several): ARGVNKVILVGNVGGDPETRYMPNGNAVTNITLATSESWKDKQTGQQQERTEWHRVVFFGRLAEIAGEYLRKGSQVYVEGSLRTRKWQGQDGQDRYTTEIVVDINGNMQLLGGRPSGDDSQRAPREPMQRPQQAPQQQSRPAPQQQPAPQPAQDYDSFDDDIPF
Chain of EcoSSB;Eco chi-psi complex (Escherichia coli;Escherichia coli LK111lambda) (P0AGE0 2-178, chain 1 of 3): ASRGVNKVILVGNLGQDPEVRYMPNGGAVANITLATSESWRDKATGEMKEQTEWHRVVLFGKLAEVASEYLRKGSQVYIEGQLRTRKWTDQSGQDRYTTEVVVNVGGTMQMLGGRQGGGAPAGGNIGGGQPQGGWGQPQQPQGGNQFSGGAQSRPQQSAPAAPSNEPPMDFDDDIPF
Chain of EcoSSB;Eco chi-psi complex (Escherichia coli;Escherichia coli LK111lambda) (P28905 whole entry, chain 2 of 3): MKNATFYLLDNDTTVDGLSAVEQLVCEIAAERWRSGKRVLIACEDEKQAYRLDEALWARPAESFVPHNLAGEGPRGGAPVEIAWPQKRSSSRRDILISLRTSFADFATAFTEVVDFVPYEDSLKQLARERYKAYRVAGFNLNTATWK
Chain of EcoSSB;Eco chi-psi complex (Escherichia coli;Escherichia coli LK111lambda) (P28632 whole entry, chain 3 of 3): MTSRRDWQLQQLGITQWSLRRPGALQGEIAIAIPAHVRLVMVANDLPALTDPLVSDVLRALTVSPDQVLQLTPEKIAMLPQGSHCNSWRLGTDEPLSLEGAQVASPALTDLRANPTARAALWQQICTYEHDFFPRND

| Ka [4] [M⁻¹] | stoichiometry N (χψ per SSB tetramer) [4] | Ka [5] [M⁻¹] | stoichiometry N (χψ per SSB tetramer) [5] | Substance | Ka [1] [M⁻¹] | Ka [2] [M⁻¹] | Ka [3] [M⁻¹] |
| --- | --- | --- | --- | --- | --- | --- | --- |
| – | – | – | – | TTTTTTTTTTTTTTTTTTTTTTTTTTTTTTTTTTTTTTTTTTTTTTTTTTTTTTTTTTTTTTTTTTTTTTTTTTTTTTTTTTTTTTTTTTTTTTTTTTTTTTTTTTTTTTTTTTTTTTTTTTTTTTTTTTTTTTTTTTTTTTTTTTTTTTTTTTTTTTTTTTTTTTTTTTTTTTTTTTTTTTTTTTTTTTTTTTTTTTTTTTTTTTTTTTTTTTTTTTTTTTTTTTTTTTTTTTTTTTTTTTTTTTTTTTTTTTTTTTTTTTTTTTTTTTTTTTTTTTTTTTTTTTTTTTTTTTTTTTTT [poly(dT)] | 500000 | > 5e+07 | 6e+06 |
| > 5e+07 | 2.2 | 130000 | 2.2 | P. aeruginosa χψ complex (from UniProt O68823 1-142) | – | – | – |
